Results from patent publication US20220127642A1, “CONTROLLABLE GENOME EDITING SYSTEM” (APPLIED STEMCELL, INC., priority 2019, published 2022).
Numbering of substitutions follows the chain as printed. “Also recorded” adds a separate entry of the source.

B1: M2: tetracycline aptamer domain M2 (SEQ ID NO: 16) controlling splicing of a conditional exon in SaCas9 gene (nucleic acid)
chain: TTTCAGGCGCTAAAACATACCAGATGAAAGTCTGGAGAGGTGAAGAATACGACCACCTAGCGCCTGAAA
modifications: listed as DNA, chemistry not fully specified
B2: M3: tetracycline aptamer domain M3 (SEQ ID NO: 18) controlling splicing of a conditional exon in SaCas9 gene (nucleic acid)
chain: B1 chain with T11C, A59G
modifications: listed as DNA, chemistry not fully specified

Tested on: sgRNA target sequence in pCAG-EGxxFP plasmid, HEK293T cells
Assay: EGxxFP assay of candidate SaCas9 constructs (reconstituted EGFP expression)
Assay type: cell-based
Conditions: tetracycline aptamer and conditional exon inserted in position 2 and 8; FIG. 9
Method: The activity of candidate SaCas9 genes were then tested in an EGxxFP assay as described by Mashiko D et al. (see Sci Rep (2013) 3:3355). In short, the pCAG-EGxxFP plasmid containing 5′ and 3′ EGFP fragments that shares 482 bp under ubiquitous CAG promoter was prepared. An approximately 500 bp region containing the sgRNA target sequence was placed between EGFP fragments of pCAG-EGxxFP plasmid. The pCAG-EGxxFP plasmid was cotransfected with the candidate SaCas9 construct and sgRNA into HEK293T cells. When the candidate SaCas9 gene is properly transcribed and spliced, the target sequence in the EGxxFT gene was digested by sgRNA guided SaCas9 protein, the homologous dependent repair took place and reconstituted the EGFP expression.

Molecule | regulating the expression of SaCas9 (EGxxFP assay)
B1 | worked well; also recorded: performed the best
B2 | worked well
